Data from paper PMC10275869 (Nature Communications, 2023).

B1: 12B2 (human IgG1) (antibody, V domains shown)
VH: QVQLKESGPGLVAPSQSLSITCTVSGFSLASYGVHWVRQPPGKGLEWLGVIWTGGSTNYNSALMSRLSINRDNSKSQVFLKLNSLQTDDTAIYYCARDRGYGYGGFAYWGQGTLVTVSA
VL: DIQMTQSPASLSASVGETVTITCRASENIYSYLAWYQHKQGKSPQLLVYNAKSLAEGVPSRFSGSGSGTQFSLKINSLQPEDFGSYYCQHHYGTPWTFGGGTKLEIK
B2: mAb66 (human IgG1) (antibody, V domains shown)
VH: ETGSGGGLVKPGGTLTLTCKASGFTLSSYWMCWVRQAPGKGLELIACLYTNGATTWYASWVNGRFAISRSTSRNTVDLNMTSLTAADTATYFCARGSGSGWSWFNIWGPGTLVTVSS
VL: TGVMTQTPASVEAAVGGTVTIKCQASQNIISSLAWYQQKPGQRPKLLIYYASTLASGVPSRFKGSGSGTQFTLTISDLECADAATYYCQSYYYSGITYGNAFGGGTEVVVK
B3: 1F5 (human IgG1) (antibody, V domains shown)
VH: DVQLQESGPGLVKPSQSLSLTCSVTGYSITSDYYWNWIRQFPGNKLEWMGYVTYDGSNNYNPSLKNRISITRDSSKNQFFLKLNSVISEDTATYYCARFGSSYWAMDYWGQGTSLTVSS
VL: QIVLTQSPAIMSASLGEAITLTCSASSSVSYMHWYQQKSGTSPKLLIYSTSNLASGVPSRFSGSGSGTFYSLTISSVEAEDAADYYCHQWYSYPWTFGGGTKLEIK
B4: 5B3 (human IgG1) (antibody, V domains shown)
VH: EVQLVESGGGLVKPGGSLKLSCAASGFTFSSYDMSWVRQTPEKRLEWVAMISSGGSYSYYPDSVKGRFTISRDNAKNTLYLQMSSLRSEDTAMYYCARQGDYAWFAYWGQGTLVTVSS
VL: DIQMTQSPASQSASLGESVTITCLASQTIGTWLAWYQQKPGKSPQLLIYAATSLADGVPSRFSGSGSGTKFSFKISSLQAEDFVSYYCQQFYSTPFTFGGGTKLEIK

These binders were tested against MojV F clamp2 (prefusion Mòjiāng virus fusion glycoprotein ectodomain stabilised with the clamp2 molecular … (Mòjiāng virus)) (assay: ELISA). Settings: both partners purified.
B1: no binding (tested: 50 μg/mL).
B2: no binding (tested: 50 μg/mL).
B3: no binding (tested: 50 μg/mL).
B4: no binding (tested: 50 μg/mL).
